Test results from publication PMC4890791.

How the values were obtained:
Assay in all cases: EMSA
Conditions in all cases: EMSA: 10 mM NaCl, 0.1 mM DTT, 0.1 mM EDTA, 10 mM Tris pH 7.4, 25 C 30 min (22-42 C series in Fig 5C), 20 ng Cy5 probe, poly(dI:dC); footprinting: 400 ng FAM …
[1] = system: RpoE (sigma E) (Vibrio alginolyticus (EPGS))
[2] = molecular target: T1, RpoE (sigma E) (Vibrio alginolyticus (EPGS)) (UniProt A0A0H0YA85)
T1 sequence: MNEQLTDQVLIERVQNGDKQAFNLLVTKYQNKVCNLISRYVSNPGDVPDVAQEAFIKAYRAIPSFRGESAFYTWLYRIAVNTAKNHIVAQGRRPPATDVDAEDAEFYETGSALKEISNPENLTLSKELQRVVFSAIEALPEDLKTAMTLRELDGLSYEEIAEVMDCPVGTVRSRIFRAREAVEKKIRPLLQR

[3] = system: T2, AphA (Vibrio alginolyticus (EPGS)), ORF:ebbe691c
T2 sequence: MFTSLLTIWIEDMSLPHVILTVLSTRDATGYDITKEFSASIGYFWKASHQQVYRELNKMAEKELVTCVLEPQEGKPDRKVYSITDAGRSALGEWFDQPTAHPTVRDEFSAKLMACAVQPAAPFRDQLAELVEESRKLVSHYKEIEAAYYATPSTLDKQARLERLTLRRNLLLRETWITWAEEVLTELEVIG

Substance	Kd [1]	Kd [2]	binding [2]	binding [3]
PluxR	83 nM	–	–	–
PrpoH	75 nM	–	–	–
AGTCGCACGCAAACGATCACCTAATCTTACGGCGTGTAGTGTATCACCACGTTCATTGGGTTGAAAGTCGCATCCTGTTGCCAAAAAATCTTGGAAGAAGGTCTTAGTTTTATAAAGTTCATAGCTAAATTTATCAATAATAATGACATTACTGTATATAAATTGTTCTACAGATGTTGACCTTGTGCATATGCACCATTACACTCATCACTGCTTTAAGCAACTATTAAAATAATCAATTAGGGGGTTACCCCCAATATCAACTCAAATGGCAAGGAAAATGGAT (double strand) [PluxR]	–	83 nM	binds	binds
PrpoE	76 nM	–	–	–
AAGATGCTCGCTTGTCAAACTTAGACTAAAGTCAGGCAGCGGTGGTCATTTGGGTACAGACATCACACTGTGAAAAAACAATGACAAAAAACTTGAGAAACCATGGAACTTTCTCATTCACGTTAGGGTCACAATAGTGCTCAAGTAAGCAGTGGTGTCAATACTACGTTTTGCATAATTAGTACCCATATCTGAGAAGAGTAGGGGCATAACAAATAGGAGTATCCGCTCGAATG (double strand) [PrpoE]	–	76 nM	binds	–
